Results taken from patent US20210032365A1 (Chugai, published 2021).
Where a chain is given by its changes, count along the chain named.

T1: human C1s (human, UniProt P09871 16-688)
T1 construct: also called hC1s; serum-derived human C1s (CompTech)
T1 sequence: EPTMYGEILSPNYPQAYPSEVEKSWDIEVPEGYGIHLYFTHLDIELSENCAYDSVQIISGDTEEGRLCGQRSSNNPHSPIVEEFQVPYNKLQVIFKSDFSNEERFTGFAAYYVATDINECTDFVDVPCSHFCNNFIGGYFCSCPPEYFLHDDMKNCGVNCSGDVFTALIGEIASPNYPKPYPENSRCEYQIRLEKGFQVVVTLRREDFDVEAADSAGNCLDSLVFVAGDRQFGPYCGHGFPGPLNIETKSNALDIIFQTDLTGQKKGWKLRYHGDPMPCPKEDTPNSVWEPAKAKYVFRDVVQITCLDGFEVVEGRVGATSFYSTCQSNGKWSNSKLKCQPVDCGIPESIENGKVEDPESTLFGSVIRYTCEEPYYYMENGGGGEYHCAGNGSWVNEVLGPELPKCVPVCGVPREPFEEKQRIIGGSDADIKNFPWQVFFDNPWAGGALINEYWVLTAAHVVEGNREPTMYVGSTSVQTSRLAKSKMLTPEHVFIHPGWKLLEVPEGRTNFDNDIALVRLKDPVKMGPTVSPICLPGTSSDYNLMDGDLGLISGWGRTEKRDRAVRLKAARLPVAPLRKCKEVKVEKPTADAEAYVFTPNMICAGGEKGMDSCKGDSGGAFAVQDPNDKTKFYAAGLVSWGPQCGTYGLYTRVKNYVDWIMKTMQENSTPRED

B1: C1_IPN009VH2-SG4GK/IPN93L0028-SK1 (antibody, human IgG4 S228P, kappa, name in Kabat numbering, V domains shown)
VH: EVMLVESGGGLVKPGGSLRLSCAASGFTFSNYAMSWVRQAPGKGLEWVATISSGGSHTYYLDSVKGRFTISRDNSKDTLYLQMNSLRAEDTALYYCARLFTGYAMDYWGQGTLVTVSS
VL: QIVLTQSPATLSLSPGERATLSCTASSSVSSSYLHWYQQKPGKAPKLWIYSTSNLASGVPSRFSGSGSGTDYTLTISSLQPEDFATYYCHQYHRHPPITFGQGTKLEIKR
notes: also called IPN009VH2/IPN93L0028
B2: C1_IPN009VH2-SG4GK/IPN93L0030-SK1 (antibody, human IgG4 S228P, kappa, name in Kabat numbering, V domains shown)
VH: B1 VH
VL: B1 VL with H93Y, P96H
notes: also called IPN009VH2/IPN93L0030
B3: C1_IPN92H0026-SG4GK/IPN93L0029-SK1 (antibody, human IgG4 S228P, kappa, name in Kabat numbering, V domains shown)
VH: B1 VH with G66H
VL: B1 VL with H95L, P96H
notes: also called IPN92H0026/IPN93L0029
B4: C1_IPN92H0026-SG4GK/IPN93L0030-SK1 (antibody, human IgG4 S228P, kappa, name in Kabat numbering, V domains shown)
VH: B1 VH with G66H
VL: B1 VL with H93Y, P96H
notes: also called IPN92H0026/IPN93L0030
B5: C1_IPN009VH2-SG4GK/IPN93L0029-SK1 (antibody, human IgG4 S228P, kappa, name in Kabat numbering, V domains shown)
VH: B1 VH
VL: B1 VL with H95L, P96H
notes: also called IPN009VH2/IPN93L0029
B6: C1_IPN92H0026-SG4GK/IPN93L0023-SK1 (antibody, human IgG4 S228P, kappa, name in Kabat numbering, V domains shown)
VH: B1 VH with G66H
VL: B1 VL with H93Y
notes: also called IPN92H0026/IPN93L0023
B7: C1_IPN92H0026-SG4GK/IPN93L0021-SK1 (antibody, human IgG4 S228P, kappa, name in Kabat numbering, V domains shown)
VH: B1 VH with G66H
VL: B1 VL with H95L
notes: also called IPN92H0026/IPN93L0021
B8: C1_IPN009VH2-SG4GK/IPN93L0031-SK1 (antibody, human IgG4 S228P, kappa, name in Kabat numbering, V domains shown)
VH: B1 VH
VL: B1 VL with P96H
notes: also called IPN009VH2/IPN93L0031
B9: C1_IPN92H0026-SG4GK/IPN93L0031-SK1 (antibody, human IgG4 S228P, kappa, name in Kabat numbering, V domains shown)
VH: B1 VH with G66H
VL: B1 VL with P96H
notes: also called IPN92H0026/IPN93L0031
B10: C1_IPN92H0026-SG4GK/IPN93L0028-SK1 (antibody, human IgG4 S228P, kappa, name in Kabat numbering, V domains shown)
VH: B1 VH with G66H
VL: B1 VL
notes: also called IPN92H0026/IPN93L0028
B11: C1_IPN92H0026-SG4GK/IPN93L0024-SK1 (antibody, human IgG4 S228P, kappa, name in Kabat numbering, V domains shown)
VH: B1 VH with G66H
VL: B1 VL with H93Y, H95L, P96H
notes: also called IPN92H0026/IPN93L0024

Key:
human C1s [1] = target: T1, human C1s; test: SPR, Ab captured; pH 5.8, 3 uM Ca
Protocol: (§1) All variants were transiently expressed and purified by the method described above. The binding affinity of each histidine-substituted variant at pH 7.4 and pH 5.8 was determined at 37 degrees C. using Biacore T200 instrument (GE Healthcare). Recombinant Protein A/G (Pierce) was immobilized onto all flow cells of a CM4 sensor chip using an amine coupling kit (GE Healthcare). Antibodies and analytes were prepared in 7(+) buffer (20 mM ACES, 150 mM NaCl, 1.2 mM CaCl2, 0.05% Tween 20, 0.005% NaN3, pH 7.4), 5(+) buffer (20 mM ACES, 150 mM NaCl, 1.2 mM CaCl2, 0.05% Tween 20, 0.005% NaN3, pH 5.8), or 5(−) buffer (20 mM ACES, 150 mM NaCl, 3 micro M CaCl2, 0.05% Tween 20, 0.005% NaN3, pH 5.8). Each antibody was captured onto the sensor surface by protein A/G. Antibody capture levels were aimed at 200 resonance unit (RU). Serum-derived human C1s (CompTech) or recombinant C1s prepared in EXAMPLE 1 was injected at 50 nM, followed by dissociation. The sensor surface was regenerated in each cycle with 10 mM Glycine-HCl, pH 1.5. […] The ratio of KD 5.8+ to KD 7.4+(“KD 5+/7+”) and that of KD 5.8− to KD 7.4+(“KD 5−/7+”) were calculated. When the KD 5+/7+ or KD 5−/7+ of a variant is larger than that of the parent antibody IPN009VH2-SG4GK/IPN009VK3-SK1, that variant is considered to be “pH”- or “pH and Ca”-dependent, respectively. When binding response in 5(+) buffer and/or in 5(−) buffer of a variant is much lower than that of IPN09VH2/IPN009VK3, that variant is also considered as “pH”- and/or “pH and Ca”-dependent. Therefore, such mutations are effective to generate “pH”- and/or “pH and Ca”-dependent antibody. To further enhance “pH” and/or “pH and Ca” dependency, a combination of histidine mutations was conducted. Antibodies with combinations of histidine mutations were evaluated using Biacore by the method described above.

human C1s [2] = target: T1, human C1s; test: SPR, Ab captured; pH 7.4, 1.2 mM Ca
Protocol: as §1

human C1s [3] = target: T1, human C1s; test: SPR, Ab captured; pH 5.8, 1.2 mM Ca
Protocol: as §1

human C1s [4] = target: T1, human C1s; test: SPR; KD pH 5.8 3 uM Ca / KD pH 7.4 1.2 mM Ca
Protocol: as §1

human C1s [5] = target: T1, human C1s; test: SPR; KD pH 5.8 1.2 mM Ca / KD pH 7.4 1.2 mM Ca
Protocol: as §1

Row | Binder | Kd (human C1s [1]) | koff (human C1s [1]) | kon (human C1s [1]) | Kd (human C1s [2]) | koff (human C1s [2]) | kon (human C1s [2]) | Kd (human C1s [3]) | koff (human C1s [3]) | kon (human C1s [3]) | KD 5(-)/7(+) (human C1s [4]) | KD 5(+)/7(+) (human C1s [5])
1 | B1 | 6.66 nM | 0.00351 s⁻¹ | 528000 M⁻¹ s⁻¹ | 13.9 nM | 0.00476 s⁻¹ | 343000 M⁻¹ s⁻¹ | 14.1 nM | 0.00751 s⁻¹ | 534000 M⁻¹ s⁻¹ | 0.5 | 1
2 | B2 | 1.3 nM | 0.00577 s⁻¹ | 4.42e+06 M⁻¹ s⁻¹ | 25.5 nM | 0.0156 s⁻¹ | 612000 M⁻¹ s⁻¹ | 45.6 nM | 0.0222 s⁻¹ | 487000 M⁻¹ s⁻¹ | 0.1 | 1.8
3 | B3 | 5.07 nM | 0.00412 s⁻¹ | 812000 M⁻¹ s⁻¹ | 9.03 nM | 0.00457 s⁻¹ | 507000 M⁻¹ s⁻¹ | 10.2 nM | 0.00613 s⁻¹ | 602000 M⁻¹ s⁻¹ | 0.6 | 1.1
4 | B4 | 270 nM | 0.0012 s⁻¹ | 4460 M⁻¹ s⁻¹ | 24.8 nM | 0.0103 s⁻¹ | 414000 M⁻¹ s⁻¹ | 26.2 nM | 0.0592 s⁻¹ | 2.26e+06 M⁻¹ s⁻¹ | 10.9 | 1.1
5 | B5 | 5.54 nM | 0.00296 s⁻¹ | 534000 M⁻¹ s⁻¹ | 18.2 nM | 0.00897 s⁻¹ | 494000 M⁻¹ s⁻¹ | 15.5 nM | 0.00857 s⁻¹ | 553000 M⁻¹ s⁻¹ | 0.3 | 0.9
6 | B6 | 9.95 nM | 0.0619 s⁻¹ | 6.23e+06 M⁻¹ s⁻¹ | 1.16 nM | 0.000608 s⁻¹ | 523000 M⁻¹ s⁻¹ | 1.53 nM | 0.00124 s⁻¹ | 813000 M⁻¹ s⁻¹ | 8.6 | 1.3
7 | B7 | 8.12 nM | 0.17 s⁻¹ | 2.1e+07 M⁻¹ s⁻¹ | 0.804 nM | 0.000472 s⁻¹ | 587000 M⁻¹ s⁻¹ | 1.95 nM | 0.00149 s⁻¹ | 763000 M⁻¹ s⁻¹ | 10.1 | 2.4
8 | B8 |  | 0.00352 s⁻¹ | 711 M⁻¹ s⁻¹ |  | 8e-06 s⁻¹ | 47600 M⁻¹ s⁻¹ |  | 0.0127 s⁻¹ | 532000 M⁻¹ s⁻¹ | 29500 | 142
9 | B9 | 215 nM | 0.00133 s⁻¹ | 6170 M⁻¹ s⁻¹ | 684 nM | 0.016 s⁻¹ | 23300 M⁻¹ s⁻¹ | 4290 nM | 0.0178 s⁻¹ | 4140 M⁻¹ s⁻¹ | 0.3 | 6.3
10 | B10 | 27.6 nM | 0.176 s⁻¹ | 6.4e+06 M⁻¹ s⁻¹ | 4.76 nM | 0.00255 s⁻¹ | 535000 M⁻¹ s⁻¹ | 10.6 nM | 0.0059 s⁻¹ | 557000 M⁻¹ s⁻¹ | 5.8 | 2.2
11 | B11 | 15.1 nM | 0.112 s⁻¹ | 7.43e+06 M⁻¹ s⁻¹ | 1.14 nM | 0.00047 s⁻¹ | 412000 M⁻¹ s⁻¹ | 3.16 nM | 0.00143 s⁻¹ | 451000 M⁻¹ s⁻¹ | 13.2 | 2.8
